Experiments:
HeLa Kyoto [1] = experiment: solubility in G1/S (NP-40 vs SDS abundance) (log2 ratio); higher = more soluble; settings: cell cycle stage: G1/S
HeLa Kyoto [2] = experiment: melting temperature (median over replicates), in situ; higher = more thermally stable
HeLa Kyoto [3] = experiment: solubility change mitosis vs G1/S (difference of NP-40 vs SDS log2 ratios) (log2 ratio difference); higher = more soluble in mitosis
HeLa Kyoto [4] = experiment: thermal stability score vs G1/S (z-score of summed log2 fold changes over temperatures); higher = more thermally stable than in G1/S
[5] = cell cycle stage: early G1 (4.5 h after nocodazole release)
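Wherever melting temperature (median over replicates), in situ is given: HeLa Kyoto cells synchronized by double thymidine or nocodazole block, proteins quantified by TMT10plex mass spectrometry, three independent biological replicates.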
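Wherever solubility change mitosis vs G1/S (difference of NP-40 vs SDS log2 ratios) is given: synchronized HeLa Kyoto cells (double thymidine block for G1/S, nocodazole release for mitosis), protein amounts in NP-40 versus SDS lysates quantified by mass spectrometry, three biological replicates.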
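Wherever solubility in G1/S (NP-40 vs SDS abundance) is given: HeLa Kyoto cells arrested at G1/S by double thymidine block, proteins quantified by TMT10plex mass spectrometry in mild NP-40 versus SDS extracts, three biological replicates.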
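Wherever thermal stability score vs G1/S (z-score of summed log2 fold changes over temperatures) is given: synchronized HeLa Kyoto cells, proteins quantified by TMT10plex mass spectrometry, three biological replicates, mitosis taken 0.5 h after nocodazole release, G1/S directly after double thymidine block.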

Sequence | solubility in G1/S (log2) (HeLa Kyoto [1]) | melting temperature (HeLa Kyoto [2]; cell cycle stage: G1/S) | melting temperature (HeLa Kyoto [2]; cell cycle stage: mitosis) | solubility change mitosis (log2) (HeLa Kyoto [3]) | thermal stability score (HeLa Kyoto [4]; [5]) | thermal stability score (HeLa Kyoto [4]; cell cycle stage: mitosis)
MDEAVGDLKQALPCVAESPTVHVEVHQRGSSTAKKEDINLSVRKLLNRHNIVFGDYTWTEFDEPFLTRNVQSVSIIDTELKVKDSQPIDLSACTVALHIFQLNEDGPSSENLEEETENIIAANHWVLPAAEFHGLWDSLVYDVEVKSHLLDYVMTTLLFSDKNVNSNLITWNRVVLLHGPPGTGKTSLCKALAQKLTIRLSSRYRYGQLIEINSHSLFSKWFSESGKLVTKMFQKIQDLIDDKDALVFVLIDEVESLTAARNACRAGTEPSDAIRVVNAVLTQIDQIKRHSNVVILTTSNITEKIDVAFVDRADIKQYIGPPSAAAIFKIYLSCLEELMKCQIIYPRQQLLTLRELEMIGFIENNVSKLSLLLNDISRKSEGLSGRVLRKLPFLAHALYVQAPTVTIEGFLQALSLAVDKQFEERKKLAAYI [TRIP13] | -0.0812 | 50.9 °C | 51.3 °C | -0.116 | 3.83 | 2.94
MDREERKTINQGQEDEMEIYGYNLSRWKLAIVSLGVICSGGFLLLLLYWMPEWRVKATCVRAAIKDCEVVLLRTTDEFKMWFCAKIRVLSLETYPVSSPKSMSNKLSNGHAVCLIENPTEENRHRISKYSQTESQQIRYFTHHSVKYFWNDTIHNFDFLKGLDEGVSCTSIYEKHSAGLTKGMHAYRKLLYGVNEIAVKVPSVFKLLIKEVLNPFYIFQLFSVILWSTDEYYYYALAIVVMSIVSIVSSLYSIRKQYVMLHDMVATHSTVRVSVCRVNEEIEEIFSTDLVPGDVMVIPLNGTIMPCDAVLINGTCIVNESMLTGESVPVTKTNLPNPSVDVKGIGDELYNPETHKRHTLFCGTTVIQTRFYTGELVKAIVVRTGFSTSKGQLVRSILYPKPTDFKLYRDAYLFLLCLVAVAGIGFIYTIINSILNEVQVGVIIIESLDIITITVPPALPAAMTAGIVYAQRRLKKIGIFCISPQRINICGQLNLVCFDKTGTLTEDGLDLWGIQRVENARFLSPEENVCNEMLVKSQFVACMATCHSLTKIEGVLSGDPLDLKMFEAIGWILEEATEEETALHNRIMPTVVRPPKQLLPESTPAGNQEMELFELPATYEIGIVRQFPFSSALQRMSVVARVLGDRKMDAYMKGAPEAIAGLCKPETVPVDFQNVLEDFTKQGFRVIALAHRKLESKLTWHKVQNISRDAIENNMDFMGLIIMQNKLKQETPAVLEDLHKANIRTVMVTGDSMLTAVSVARDCGMILPQDKVIIAEALPPKDGKVAKINWHYADSLTQCSHPSAIDPEAIPVKLVHDSLEDLQMTRYHFAMNGKSFSVILEHFQDLVPKLMLHGTVFARMAPDQKTQLIEALQNVDYFVGMCGDGANDCGALKRAHGGISLSELEASVASPFTSKTPSISCVPNLIREGRAALITSFCVFKFMALYSIIQYFSVTLLYSILSNLGDFQFLFIDLAIILVVVFTMSLNPAWKELVAQRPPSGLISGALLFSVLSQIIICIGFQSLGFFWVKQQPWYEVWHPKSDACNTTGSGFWNSSHVDNETELDEHNIQNYENTTVFFISSFQYLIVAIAFSKGKPFRQPCYKNYFFVFSVIFLYIFILFIMLYPVASVDQVLQIVCVPYQWRVTMLIIVLVNAFVSITVEESVDRWGKCCLPWALGCRKKTPKAKYMYLAQELLVDPEWPPKPQTTTEAKALVKENGSCQIITIT [ATP13A3] | -0.205 | 54.3 °C | 53.9 °C | -0.0406 | -0.654 | -0.884
MCQVGEDYGEPAPEEPPPAPRPSREQKCVKCKEAQPVVVIRAGDAFCRDCFKAFYVHKFRAMLGKNRLIFPGEKVLLAWSGGPSSSSMVWQVLEGLSQDSAKRLRFVAGVIFVDEGAACGQSLEERSKTLAEVKPILQATGFPWHVVALEEVFSLPPSVLWCSAQELVGSEGAYKAAVDSFLQQQHVLGAGGGPGPTQGEEQPPQPPLDPQNLARPPAPAQTEALSQLFCSVRTLTAKEELLQTLRTHLILHMARAHGYSKVMTGDSCTRLAIKLMTNLALGRGAFLAWDTGFSDERHGDVVVVRPMRDHTLKEVAFYNRLFSVPSVFTPAVDTKAPEKASIHRLMEAFILRLQTQFPSTVSTVYRTSEKLVKGPRDGPAAGDSGPRCLLCMCALDVDAADSATAFGAQTSSRLSQMQSPIPLTETRTPPGPCCSPGVGWAQRCGQGACRREDPQACIEEQLCYSCRVNMKDLPSLDPLPPYILAEAQLRTQRAWGLQEIRDCLIEDSDDEAGQS [CTU2] | 0.28 | 53.4 °C | 52.8 °C | -0.166 | -0.721 | -0.101
MWLEILLTSVLGFAIYWFISRDKEETLPLEDGWWGPGTRSAAREDDSIRPFKVETSDEEIHDLHQRIDKFRFTPPLEDSCFHYGFNSNYLKKVISYWRNEFDWKKQVEILNRYPHFKTKIEGLDIHFIHVKPPQLPAGHTPKPLLMVHGWPGSFYEFYKIIPLLTDPKNHGLSDEHVFEVICPSIPGYGFSEASSKKGFNSVATARIFYKLMLRLGFQEFYIQGGDWGSLICTNMAQLVPSHVKGLHLNMALVLSNFSTLTLLLGQRFGRFLGLTERDVELLYPVKEKVFYSLMRESGYMHIQCTKPDTVGSALNDSPVGLAAYILEKFSTWTNTEFRYLEDGGLERKFSLDDLLTNVMLYWTTGTIISSQRFYKENLGQGWMTQKHERMKVYVPTGFSAFPFELLHTPEKWVRFKYPKLISYSYMVRGGHFAAFEEPELLAQDIRKFLSVLERQ [EPHX1] | -0.336 | 57.9 °C | 58.1 °C | -0.197 | -3.88 | -2.14
MECPHLSSSVCIAPDSAKFPNGSPSSWCCSVCRSNKSPWVCLTCSSVHCGRYVNGHAKKHYEDAQVPLTNHKKSEKQDKVQHTVCMDCSSYSTYCYRCDDFVVNDTKLGLVQKVREHLQNLENSAFTADRHKKRKLLENSTLNSKLLKVNGSTTAICATGLRNLGNTCFMNAILQSLSNIEQFCCYFKELPAVELRNGKTAGRRTYHTRSQGDNNVSLVEEFRKTLCALWQGSQTAFSPESLFYVVWKIMPNFRGYQQQDAHEFMRYLLDHLHLELQGGFNGVSRSAILQENSTLSASNKCCINGASTVVTAIFGGILQNEVNCLICGTESRKFDPFLDLSLDIPSQFRSKRSKNQENGPVCSLRDCLRSFTDLEELDETELYMCHKCKKKQKSTKKFWIQKLPKVLCLHLKRFHWTAYLRNKVDTYVEFPLRGLDMKCYLLEPENSGPESCLYDLAAVVVHHGSGVGSGHYTAYATHEGRWFHFNDSTVTLTDEETVVKAKAYILFYVEHQAKAGSDKL [USP3] | -0.0307 | 49.4 °C | 49.4 °C | -0.13 | 0.817 | 1.54
MPKRKVSSAEGAAKEEPKRRSARLSAKPPAKVEAKPKKAAAKDKSSDKKVQTKGKRGAKGKQAEVANQETKEDLPAENGETKTEESPASDEAGEKEAKSD [HMGN1] | 0.0899 | 59 °C | 56.4 °C | 1.47 | -2.25 | -4.73
MTSAAPAKKPYRKAPPEHRELRLEIPGSRLEQEEPLTDAERMKLLQEENEELRRRLASATRRTEALERELEIGQDCLELELGQSREELDKFKDKFRRLQNSYTASQRTNQELEDKLHTLASLSHSWIFAIKKAEMDRKTLDWEIVELTNKLLDAKNTINKLEELNERYRLDCNLAVQLLKCNKSHFRNHKFADLPCELQDMVRKHLHSGQEAASPGPAPSLAPGAVVPTSVIARVLEKPESLLLNSAQSGSAGRPLAEDVFVHVDMSEGVPGDPASPPAPGSPTPQPNGECHSLGTARGSPEEELPLPAFEKLNPYPTPSPPHPLYPGRRVIEFSEDKVRIPRNSPLPNCTYATRQAISLSLVEEGSERARPSPVPSTPASAQASPHHQPSPAPLTLSAPASSASSEEDLLVSWQRAFVDRTPPPAAVAQRTAFGRDALPELQRHFAHSPADRDEVVQAPSARPEESELLLPTEPDSGFPREEEELNLPISPEEERQSLLPINRGTEEGPGTSHTEGRAWPLPSSSRPQRSPKRMGVHHLHRKDSLTQAQEQGNLLN [TJAP1] | 0.288 | 51.1 °C | 51.7 °C | -0.036 | 1.77 | 3.57
MRQKRKGDLSPAELMMLTIGDVIKQLIEAHEQGKDIDLNKVKTKTAAKYGLSAQPRLVDIIAAVPPQYRKVLMPKLKAKPIRTASGIAVVAVMCKPHRCPHISFTGNICVYCPGGPDSDFEYSTQSYTGYEPTSMRAIRARYDPFLQTRHRIEQLKQLGHSVDKVEFIVMGGTFMALPEEYRDYFIRNLHDALSGHTSNNIYEAVKYSERSLTKCIGITIETRPDYCMKRHLSDMLTYGCTRLEIGVQSVYEDVARDTNRGHTVKAVCESFHLAKDSGFKVVAHMMPDLPNVGLERDIEQFTEFFENPAFRPDGLKLYPTLVIRGTGLYELWKSGRYKSYSPSDLVELVARILALVPPWTRVYRVQRDIPMPLVSSGVEHGNLRELALARMKDLGIQCRDVRTREVGIQEIHHKVRPYQVELVRRDYVANGGWETFLSYEDPDQDILIGLLRLRKCSEETFRFELGGGVSIVRELHVYGSVVPVSSRDPTKFQHQGFGMLLMEEAERIAREEHGSGKIAVISGVGTRNYYRKIGYRLQGPYMVKMLK [ELP3] | -0.062 | 51.9 °C | 51.4 °C | -0.0597 | 0.13 | -1.12
MGRKLDPTKEKRGPGRKARKQKGAETELVRFLPAVSDENSKRLSSRARKRAAKRRLGSVEAPKTNKSPEAKPLPGKLPKGISAGAVQTAGKKGPQSLFNAPRGKKRPAPGSDEEEEEEDSEEDGMVNHGDLWGSEDDADTVDDYGADSNSEDEEEGEALLPIERAARKQKAREAAAGIQWSEEETEDEEEEKEVTPESGPPKVEEADGGLQINVDEEPFVLPPAGEMEQDAQAPDLQRVHKRIQDIVGILRDFGAQREEGRSRSEYLNRLKKDLAIYYSYGDFLLGKLMDLFPLSELVEFLEANEVPRPVTLRTNTLKTRRRDLAQALINRGVNLDPLGKWSKTGLVVYDSSVPIGATPEYLAGHYMLQGASSMLPVMALAPQEHERILDMCCAPGGKTSYMAQLMKNTGVILANDANAERLKSVVGNLHRLGVTNTIISHYDGRQFPKVVGGFDRVLLDAPCSGTGVISKDPAVKTNKDEKDILRCAHLQKELLLSAIDSVNATSKTGGYLVYCTCSITVEENEWVVDYALKKRNVRLVPTGLDFGQEGFTRFRERRFHPSLRSTRRFYPHTHNMDGFFIAKFKKFSNSIPQSQTGNSETATPTNVDLPQVIPKSENSSQPAKKAKGAAKTKQQLQKQQHPKKASFQKLNGISKGADSELSTVPSVTKTQASSSFQDSSQPAGKAEGIREPKVTGKLKQRSPKLQSSKKVAFLRQNAPPKGTDTQTPAVLSPSKTQATLKPKDHHQPLGRAKGVEKQQLPEQPFEKAAFQKQNDTPKGPQPPTVSPIRSSRPPPAKRKKSQSRGNSQLLLS [NOP2] | -2.12 | 55.4 °C | 53.9 °C | 0.976 | -0.377 | -6.17
